Measurements: the supplement of paper PMC9233669
Fewer inactive variants are shown than the library holds.

Assays:
biotinyl-Phe-oxazolone = assay: self-aminoacylation, catalytic enhancement (BFO) (fold over background); higher = more active; k-Seq, kA / k0A0; sequences stand for … in GGGAAUGGAUCCACAUCUACGAAUUC…UUCACUGCAGACUUGACGAAGCUG
Procedure, shortened: (§1)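 Catalytic enhancement equals the median kA over the uncatalyzed rate, the latter read from the low-activity peak of a bimodal Gaussian fit. Values of kA came from fitting each sequence's fraction reacted to a pseudo-first-order model, with 1000 bootstraps. Reacted RNA was captured with streptavidin and quantified by triplicate qPCR and Illumina sequencing after 90 minutes at room temperature with 2–1250 μM biotinyl-aminoacyl-oxazolone and 0.43 μM mutagenized RNA pools bearing a 21-nt variable region.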

biotinyl-Ile-oxazolone = assay: self-aminoacylation, catalytic enhancement (BIO) (fold over background); higher = more active; k-Seq, kA / k0A0; sequences stand for … in GGGAAUGGAUCCACAUCUACGAAUUC…UUCACUGCAGACUUGACGAAGCUG
Procedure, shortened: as §1

biotinyl-Met-oxazolone = assay: self-aminoacylation, catalytic enhancement (BMO) (fold over background); higher = more active; k-Seq, kA / k0A0; sequences stand for … in GGGAAUGGAUCCACAUCUACGAAUUC…UUCACUGCAGACUUGACGAAGCUG
Procedure, shortened: as §1

biotinyl-Val-oxazolone = assay: self-aminoacylation, catalytic enhancement (BVO) (fold over background); higher = more active; k-Seq, kA / k0A0; sequences stand for … in GGGAAUGGAUCCACAUCUACGAAUUC…UUCACUGCAGACUUGACGAAGCUG
Procedure, shortened: as §1

biotinyl-Leu-oxazolone = assay: self-aminoacylation, catalytic enhancement (BLO) (fold over background); higher = more active; k-Seq, kA / k0A0; sequences stand for … in GGGAAUGGAUCCACAUCUACGAAUUC…UUCACUGCAGACUUGACGAAGCUG
Procedure, shortened: as §1

biotinyl-Trp-oxazolone = assay: self-aminoacylation, catalytic enhancement (BWO) (fold over background); higher = more active; k-Seq, kA / k0A0; sequences stand for … in GGGAAUGGAUCCACAUCUACGAAUUC…UUCACUGCAGACUUGACGAAGCUG
Procedure, shortened: as §1

Sequence | self-aminoacylation (biotinyl-Phe-oxazolone) | self-aminoacylation (biotinyl-Ile-oxazolone) | self-aminoacylation (biotinyl-Met-oxazolone) | self-aminoacylation (biotinyl-Val-oxazolone) | self-aminoacylation (biotinyl-Leu-oxazolone) | self-aminoacylation (biotinyl-Trp-oxazolone)
AUUACUCUGGUCAUCGCGUGA [Fam2.1 aminoacylation ribozyme variant] | 117 | 8.13 | 16.4 | 8.12 | 17.7 | 18.3
AUUACUCUGGUUAUCGAGUGA [Fam2.1 aminoacylation ribozyme variant] | 51.3 | 4.17 | 8.17 | 4.2 | 8.76 | 10.5
AUUAGCAUGGUCAUCGAGUGA [Fam2.1 aminoacylation ribozyme variant] | 3.31 | 2.87 | 3.11 | 2.64 | 3.39 | 3.81
AUUAGCCCGGUCAUCGAGUGA [Fam2.1 aminoacylation ribozyme variant] | 55.9 | 3.45 | 6.23 | 3.57 | 6.64 | 7.74
AUUAGCCUAGGUCAUCGGGUG [Fam2.2 aminoacylation ribozyme variant] | 219 | 19 | 30.9 | 15.8 | 41.9 | 23.3
AUUAGCCUGGUAAUCGAGUGA [Fam2.1 aminoacylation ribozyme variant] | 75.9 | 5.28 | 11.6 | 5.07 | 13.3 | 12.8
AUUAGCCUGGUCAACGAGUGA [Fam2.1 aminoacylation ribozyme variant] | 18.2 | 3.71 | 5.21 | 3.45 | 5.61 | 6.82
AUUAGCCUGGUCACCGAGUGA [Fam2.1 aminoacylation ribozyme variant] | 58.3 | 4.14 | 8.98 | 4.65 | 11.5 | 11.4
AUUAGCCUGGUCAUCCAGUGA [Fam2.1 aminoacylation ribozyme variant] | 10.8 | 2.69 | 4.07 | 2.62 | 4.36 | 5.21
AUUAGCCUGGUCAUCGAAUGA [Fam2.1 aminoacylation ribozyme variant] | 1.23 | 1.36 | 1.43 | 1.39 | 1.48 | 1.27
AUUAGCCUGGUCAUCGACUGA [Fam2.1 aminoacylation ribozyme variant] | 1.59 | 1.22 | 1.21 | 1.04 | 1.13 | 0.565
AUUAGCCUGGUCAUCGAGAGA [Fam2.1 aminoacylation ribozyme variant] | 1.49 | 1.63 | 1.08 | 1.25 | 1.43 | 1.35
AUUAGCCUGGUCAUCGAGGGA [Fam2.1 aminoacylation ribozyme variant] | 2.28 | 2.08 | 1.49 | 2.4 | 2.52 | 3.19
AUUAGCCUGGUCCUCGAGUGA [Fam2.1 aminoacylation ribozyme variant] | 36.7 | 2.67 | 4.69 | 2.84 | 5.41 | 5.08
AUUAGCCUGGUGAUCGAGUGA [Fam2.1 aminoacylation ribozyme variant] | 41.1 | 3.98 | 7.43 | 3.62 | 7.61 | 8.57
AUUAUCCUAGGUCAUCGGGUG [Fam2.2 aminoacylation ribozyme variant] | 54.6 | 6.74 | 9.84 | 5.98 | 14.5 | 9.09
AUUAUCCUGGCCAUCGAGUGA [Fam2.1 aminoacylation ribozyme variant] | 13.8 | 1.92 | 2.99 | 1.69 | 2.98 | 2.77
AUUAUCCUGGGCAUCGAGUGA [Fam2.1 aminoacylation ribozyme variant] | 36.3 | 3.07 | 5.87 | 2.94 | 6.24 | 6.86
AUUAUCCUGGUAAUCGAGUGA [Fam2.1 aminoacylation ribozyme variant] | 96.5 | 5.94 | 13.3 | 5.97 | 14.5 | 16.5
AUUAUCCUGGUCAUCAAGUGA [Fam2.1 aminoacylation ribozyme variant] | 10.1 | 2.3 | 3.84 | 2.2 | 3.5 | 4.39
AUUAUCCUGGUCAUCGACUGA [Fam2.1 aminoacylation ribozyme variant] | 0.418 | 0.875 | 0.65 | 0.785 | 0.941 | 0.498
AUUAUCCUGGUCAUCGAGUGG [Fam2.1 aminoacylation ribozyme variant] | 6.09 | 2.19 | 5.06 | 2.27 | 5.03 | 4.05
AUUCAACUAGGUCAACGGGUG [Fam2.2 aminoacylation ribozyme variant] | 25.5 | 2.4 | 4.31 | 2.31 | 4.91 | 3.38
AUUCAACUAGGUCAGCGGGUG [Fam2.2 aminoacylation ribozyme variant] | 32.2 | 3.15 | 4.12 | 3.29 | 5.11 | 5.13
AUUCAACUAGGUCAUCGAGUG [Fam2.2 aminoacylation ribozyme variant] | 2.85 | 1.55 | 2.2 | 1.45 | 3.13 | 1.84
AUUCAACUAGGUCAUCGGAUG [Fam2.2 aminoacylation ribozyme variant] | 0.801 | 0.675 | 0.66 | 0.708 | 0.772 | 0.549

Sequence | self-aminoacylation (biotinyl-Phe-oxazolone) | self-aminoacylation (biotinyl-Ile-oxazolone) | self-aminoacylation (biotinyl-Met-oxazolone) | self-aminoacylation (biotinyl-Val-oxazolone) | self-aminoacylation (biotinyl-Leu-oxazolone) | self-aminoacylation (biotinyl-Trp-oxazolone)
AUUCAACUAGGUGAUCGGGUG [Fam2.2 aminoacylation ribozyme variant] | 21.9 | 3.02 | 3.11 | 2.76 | 4.01 | 4.01
AUUCAACUCGGUCAUCGGGUG [Fam2.2 aminoacylation ribozyme variant] | 67.4 | 4.15 | 6.48 | 3.84 | 9.77 | 7.4
AUUCAACUUGGUCAUCGGGUG [Fam2.2 aminoacylation ribozyme variant] | 34.1 | 3.85 | 5.25 | 3.29 | 6.72 | 4.45
AUUCACAUAAGUCAUCGGGUG [Fam2.2 aminoacylation ribozyme variant] | 95.4 | 7.61 | 11.8 | 6.79 | 18.3 | 12.4
AUUCACAUACGUCAUCGGGUG [Fam2.2 aminoacylation ribozyme variant] | 53.4 | 4.62 | 7.22 | 4.19 | 9.26 | 6.74
AUUCACAUAGGGCAUCGGGUG [Fam2.2 aminoacylation ribozyme variant] | 20.9 | 3.83 | 4.4 | 3.39 | 3.62 | 4.52
AUUCACAUAGGUCAGCGGGUG [Fam2.2 aminoacylation ribozyme variant] | 22.6 | 3.26 | 3.83 | 2.91 | 4.15 | 5.03
AUUCACAUAGGUCAUCGGAUG [Fam2.2 aminoacylation ribozyme variant] | 0.549 | 0.903 | 0.698 | 0.857 | 0.649 | 0.403
AUUCACAUCGGUCAUCGGGUG [Fam2.2 aminoacylation ribozyme variant] | 57.5 | 4.36 | 8.09 | 4.81 | 9.09 | 5.93
AUUCACCAAGCUCAUCGGGUG [Fam2.2 aminoacylation ribozyme variant] | 9.43 | 2.4 | 2.13 | 2.92 | 2.92 | 1.79
AUUCACCAAGGACAUCGGGUG [Fam2.2 aminoacylation ribozyme variant] | 30 | 3.2 | 4.65 | 3.27 | 4.96 | 4.17
AUUCACCAAGGUCAUCCGGUG [Fam2.2 aminoacylation ribozyme variant] | 59.6 | 5.51 | 7.8 | 4.96 | 11.4 | 7.89
AUUCACCAAGGUCAUCGCGUG [Fam2.2 aminoacylation ribozyme variant] | 132 | 7.86 | 16 | 8.42 | 20.7 | 12.6
AUUCACCAAGGUCAUCGGCUG [Fam2.2 aminoacylation ribozyme variant] | 8.8 | 2.06 | 2.21 | 1.92 | 2.66 | 1.78
AUUCACCAAGGUCAUCGGGUA [Fam2.2 aminoacylation ribozyme variant] | 22.5 | 3.77 | 2.43 | 3.04 | 3.23 | 4.89
AUUCACCAAGGUCAUGGGGUG [Fam2.2 aminoacylation ribozyme variant] | 77.3 | 6.16 | 9.1 | 5.88 | 12.7 | 8.64
AUUCACCAAGGUCGUCGGGUG [Fam2.2 aminoacylation ribozyme variant] | 12.9 | 2.09 | 2.2 | 2.58 | 3.05 | 2.29
AUUCACCCAAGUCAUCGGGUG [Fam2.2 aminoacylation ribozyme variant] | 92.9 | 5.59 | 11 | 5.86 | 14.8 | 10.1
AUUCACCCAGAUCAUCGGGUG [Fam2.2 aminoacylation ribozyme variant] | 7.26 | 1.85 | 1.82 | 2.26 | 2.43 | 1.84
AUUCACCCAGGCCAUCGGGUG [Fam2.2 aminoacylation ribozyme variant] | 34.1 | 3.35 | 3.79 | 3.7 | 6.14 | 5.24
AUUCACCCAGGUCACCGGGUG [Fam2.2 aminoacylation ribozyme variant] | 39.4 | 3.47 | 5.66 | 3.77 | 5.75 | 4.89
AUUCACCCAGGUCAGCGGGUG [Fam2.2 aminoacylation ribozyme variant] | 18.4 | 2.93 | 3.76 | 2.73 | 5.61 | 4.34
AUUCACCCAGGUCAUCGGGCG [Fam2.2 aminoacylation ribozyme variant] | 18 | 2.72 | 3.77 | 2.62 | 4.5 | 2.97
AUUCACCCAGGUCAUCGGGUC [Fam2.2 aminoacylation ribozyme variant] | 6.42 | 1.14 | 1.5 | 1.88 | 1.92 | 1.39
AUUCACCCAGGUCAUUGGGUG [Fam2.2 aminoacylation ribozyme variant] | 23.8 | 2.31 | 3.36 | 2.52 | 4.11 | 3.71
